# Data: article PMC3781837
# Target: WhiA (Streptomyces venezuelae) (UniProt F2RGQ4)
# Assay: DNase I footprinting
# Details: DNase I footprinting per Sure Track kit (Amersham); buffer, salt, pH and temperature not given in the material
# Sequence of UniProt F2RGQ4 (F2RGQ4 whole entry): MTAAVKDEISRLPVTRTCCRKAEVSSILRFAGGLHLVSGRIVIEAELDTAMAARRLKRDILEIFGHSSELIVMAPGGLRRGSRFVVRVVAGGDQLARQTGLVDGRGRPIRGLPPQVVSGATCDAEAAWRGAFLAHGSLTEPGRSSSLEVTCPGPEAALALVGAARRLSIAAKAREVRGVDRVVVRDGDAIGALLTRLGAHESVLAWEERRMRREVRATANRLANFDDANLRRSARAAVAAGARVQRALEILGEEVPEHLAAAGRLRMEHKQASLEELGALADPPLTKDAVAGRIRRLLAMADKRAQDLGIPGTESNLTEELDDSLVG
row,Sequence,binding
1,AGCATCCGGTGCACCCTCCCAGTGTCGCACCCGAAGGTGTCGAATCCCGGGAGTGGGCCCGCCGCGACACGCGGAGGGCCCGGAATCGCCTTTAACCCAAGATCTAGTGGTTGGATGGCATCGG (double strand) [nrdR promoter probe],binds
2,CCGGAATTCCCACTCAAAAGGCTGGACATTCTCCAGATCAAACGGGCATACGCTCGATGACACGCCGCTTCGGCCCCTAGGATTCCCTCTAACACCTCACCGGTCTCATTCGACAGGAAACCCATGAGCGACACATCCTCCCCCTTCGGCTTCGAGCTCGTGCGGCGCGGTTAGGATCCGCG (double strand) [filP promoter probe],binds
3,GAACTGGTGGAGAAGTCGGCGAAGCGCTTGCGCGGGGCCGTCCTGATCGGTGCCGACCGCGCCCTGATCCGCGAAGCCCTGGCGCGACACGCCCCGGAGGTACCGGTGGTGGACCTCGACCGGACCGACACTGGGGCGATGTCCGAGGCGGTC (double strand) [ftsW promoter probe],binds
4,GACATACCCACTCGGACTACTCCAGTCGACACGCCGAGGGTTTGCCCCTTTTGTAGGGATATCGACCCGTTCGACGACAGCTGGAGGCACCGTGCGGCCGGGAGGCTACGACTACGACAC (double strand) [cslA promoter probe],binds
5,GACGTGCCGCGCATCCGGGCGGCCACGGACCTGGGCAACGTCCCGATGGCCGCGGCGTTCGCCCGGGCGGGTTACGACGCCTTCGAGCACGCGATCAACTACGTGTGGGACGCGCCGGGCGTGGCGGGTCCCTGACTGCCAGGATGGGGGCGTAGGTCCGTCGACGAGGGGATTTGGCGTGCTCTTCGAGGTGTGGGC (double strand) [treZ promoter probe],binds
6,GCGCCGCAGCCCGGAGAAACCGAGGGCTTCTCCCCGCAGCGTCATTTGGAGGTTTTGGGACGACACGCCCCTAAACTCGCCCTGGACGTGGTGCTGGCCGACGAGGCCGCCGTGCCCGACCGCGAGTCCCTCGCCGACGCCGCCAAGCGGCTCGGTGCCGC (double strand) [whiAp2 promoter probe],binds
7,GCTGCTCCACTCCACCAACGTAGGTCGGGAAGGGGCGGGAACCGGGTCCGGGACACGCCCTTTGGGTGACCTTGCCCCCGAGAACGACCGAAGGTCGGCGTCG (double strand) [sven4724-sven4725 intergenic probe],binds
8,GGCGGTACGGGAGCGGCCGACGCAGACTGGGAGGAGCGCCCTCTTTCCCGGAGTGCTGGAGGAACCACGGTATGACCGACCTCGCCATCGAGACCGAGGGCCTGGTCAAGGTCTTCGGCAGCAACCGCGCCGTCGACGGGATCGACCTCCGCGTCCCCGCCGGAATCGTCTACGGAGTCCTTGGCCCCAACGGCGC (double strand) [sven3535 promoter probe],no binding
9,GTCTCGCGCATGTGAGGGGCGGTGCCGCGCGGGGCACCGGGCCCGGCGGGCCCGGGCCGCACCGACGCGCCGGAATGATCGCTAAGAGGAAATTGTCCGATTAGCGCGTATCGTCGGCCCATGCCCACGCCATACGGATCCCGCGGCGGCATGGCGTTCAGCGCGGACGAGCTGCGTGTGCTCCGCCGTGCCCTCGCCATC (double strand) [sven3229 promoter probe],no binding
